From US20260242478A1 (published 2026)
Where no end group is shown, it is not given here.

B1: Phage-3707 (peptide)
peptide: VDHMCKPMWMCNGF
notes: not shown: pIII filament protein of the bacteriophage
B2: Phage-3686 (peptide)
peptide: ADMRCVPDWMCHGF
B3: Phage-3689 (peptide)
peptide: LPHACKPSWMCQGF
B4: Phage-3695 (peptide)
peptide: SQHSCIPSWMCNGF
B5: Phage-3712 (peptide)
peptide: EVWMCRPSWMCDGF
modifications: cysteine pairing not given here; also: displayed on phage as pIII fusion
notes: as for B1
B6: Phage-3699 (peptide)
peptide: YLHECRPEWMCVGF
B7: Phage-3685 (peptide)
peptide: EMSLCIPAWMCSVF
B8: Phage-3683 (peptide)
peptide: STSWCSPPWMCEGF
B9: Phage-3691 (peptide)
peptide: VNERCIPDWMCVGF
B10: Phage-3710 (peptide)
peptide: EGRYCVPDWMCLGL
modifications: cysteine pairing not given here; also: displayed on phage as pIII fusion
notes: as for B1
B11: Phage-3701 (peptide)
peptide: EVLLCKPSWMCDGF
notes: as for B1
B12: Phage-3711 (peptide)
peptide: IAFRCVPEWMCSAF
modifications: cysteine pairing not given here; also: displayed on phage as pIII fusion
notes: as for B1
B13: Phage-3690 (peptide)
peptide: ALSMCVPQWMCQGF
B14: Phage-3698 (peptide)
peptide: DVPYCIPSWMCHGF
B15: Phage-3715 (peptide)
peptide: YGVQCVPSWMCQGF
B16: Phage-3705 (peptide)
peptide: MSMSCVPLWMCSGF
notes: as for B1
B17: Phage-3704 (peptide)
peptide: GDVRCVPSWMCEGY
notes: as for B1
B18: Phage-3708 (peptide)
peptide: TDRVCTPAWMCQGL
notes: as for B1
B19: Phage-3684 (peptide)
peptide: ERPACVPMWMCTGL
B20: Phage-3703 (peptide)
peptide: VPRMCIPHWMCEGI
notes: as for B1
B21: Phage-3706 (peptide)
peptide: EIPLCRPEWMCTGL
notes: as for B1
B22: Phage-3682 (peptide)
peptide: DERMCRPAWMCEGL
B23: Phage-3717 (peptide)
peptide: MEWHCKPKWMCEGF
B24: Phage-3700 (peptide)
peptide: GLPYCVPSWMCDGF
B25: Phage-3697 (peptide)
peptide: NEKLCVPTWMCDGL
B26: Phage-3692 (peptide)
peptide: DHMMCVPPWMCDGI
B27: Phage-3693 (peptide)
peptide: SEHYCVPNWMCAGL
B28: Phage-3702 (peptide)
peptide: PGALCVPFWMCQGF
notes: as for B1
B29: Phage-3696 (peptide)
peptide: TMQMCKPAWMCSQL
B30: Phage-3687 (peptide)
peptide: MIAMCKPPWMCIGL
B31: Phage-3709 (peptide)
peptide: EHIRCQPSWMCWGF
modifications: cysteine pairing not given here; also: displayed on phage as pIII fusion
notes: as for B1
B32: Phage-3694 (peptide)
peptide: TVPRCVPAWMCNWS
B33: Phage-3713 (peptide)
peptide: LEGMCKPAWMCTGF
modifications: cysteine pairing not given here; also: displayed on phage as pIII fusion
notes: as for B1
B34: Phage-3714 (peptide)
peptide: GQAACVPSWMCSGF
modifications: cysteine pairing not given here; also: displayed on phage as pIII fusion
notes: as for B1
B35: Phage-3716 (peptide)
peptide: IERMCMPPWMCSAL
B36: Phage-3688 (peptide)
peptide: VVVQCVPKWMCYGF

Key:
PSMA Fab (006 PSMA Fab) [1] = target: T1, PSMA Fab (006 PSMA Fab) (biotinylated (site not stated)); test: clonal phage supernatant on biotinylated PSMA Fab captured on neutravidin plate, anti-M13-HRP detection;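 further: before phage were added, wells received PSMA antigen in blocking buffer or blocking buffer alone, with no wash in between, followed by a short phage incubation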
T1 construct: Biotinylated PSMA Fab captured on neutravidin coated plates in the phage ELISA; also called Anti-PSMA Fab; anti-PSMA Fab

PSMA Fab (006 PSMA Fab) [2] = target: T1, PSMA Fab (006 PSMA Fab); test: clonal phage supernatant on captured PSMA Fab pre-incubated with the competitor PSMA antigen, anti-M13-HRP detection
Protocol: (§1) Clonal phage were harvested as crude supernatants and screened via standard ELISAs. […] Prior to the addition of clonal phage. wells were incubated with blocking buffer and PSMA antigen or blocking buffer alone. Without washing or aspirating, clonal phage supernatants were then added to the wells and incubated for a short time. Wells were then washed followed by detection of bound phage using a horse radish conjugated anti-M13 antibody.

PSMA Fab (006 PSMA Fab) [3] = target: T2, PSMA Fab (006 PSMA Fab); test: clonal phage ELISA on captured PSMA Fab pre-incubated with PSMA antigen as competitor;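 further: crude clonal phage supernatants added to wells without washing away the PSMA competitor, bound phage detected by HRP-conjugated anti-M13 antibody, reference wells received blocking buffer only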
T2 construct: also called Anti-PSMA Fab
Protocol: as §1

PSMA Fab (006 PSMA Fab) [4] = target: T2, PSMA Fab (006 PSMA Fab); test: clonal phage ELISA on biotinylated PSMA Fab captured on neutravidin plates, anti-M13 HRP detection;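 further: crude clonal phage supernatants tested, before phage were added, wells were pretreated with PSMA antigen in blocking buffer or with blocking buffer only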
Protocol: as §1

Anti-PSMA Fab [5] = target: T3, Anti-PSMA Fab; test: clonal phage ELISA; biotinylated PSMA Fab on neutravidin plate, blocking buffer alone; anti-M13 HRP detection;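 further: crude clonal phage supernatants added without washing to wells pretreated with blocking buffer with or without PSMA antigen, short incubation, then washed before detecting bound phage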
T3 construct: also called 006 PSMA Fab
Protocol: as §1

Anti-PSMA Fab [6] = target: T3, Anti-PSMA Fab; test: clonal phage ELISA; biotinylated PSMA Fab on neutravidin plate, wells pre-incubated with PSMA antigen as competitor; anti-M13 HRP detection;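 further: crude clonal phage supernatants added to antigen-treated wells without a wash, incubated briefly, then bound phage read out via horse radish–conjugated anti-M13 antibody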
Protocol: as §1

PSMA Fab (006 PSMA Fab) [7] = target: T4, PSMA Fab (006 PSMA Fab) (biotinylated (site not stated)); test: phage ELISA: clonal phage on biotinylated PSMA Fab captured on neutravidin plate, anti-M13 HRP detection
T4 construct: Captured as biotinylated PSMA Fab on neutravidin coated plates in the phage ELISA; also called Anti-PSMA Fab; anti-PSMA Fab

PSMA Fab (006 PSMA Fab) [8] = target: T4, PSMA Fab (006 PSMA Fab); test: phage ELISA: clonal phage on biotinylated PSMA Fab captured on neutravidin plate, wells pre-incubated with PSMA antigen as competitor, anti-M13 HRP detection
Protocol: as §1

Row | Binder | Phage binding ELISA signal, Anti-PSMA Fab (PSMA Fab (006 PSMA Fab) [1]) | Phage binding ELISA signal, Anti-PSMA Fab in presence of PSMA antigen (PSMA Fab (006 PSMA Fab) [2]) | Phage binding ELISA signal, Anti-PSMA Fab (Anti-PSMA Fab [5]) | Phage binding ELISA signal, Anti-PSMA Fab in presence of PSMA (Anti-PSMA Fab [6]) | other results
1 | B1 | 1.43 | 0.0673 | – | – | –
2 | B2 | – | – | – | – | Phage binding ELISA signal, Anti-PSMA Fab with PSMA antigen (PSMA Fab (006 PSMA Fab) [3]): 0.0874; Phage binding ELISA signal, Anti-PSMA Fab (PSMA Fab (006 PSMA Fab) [4]): 1.47
3 | B3 | – | – | 1.47 | 0.0636 | –
4 | B4 | – | – | 1.45 | 0.154 | –
5 | B5 | 1.43 | 0.0717 | – | – | –
6 | B6 | – | – | 1.45 | 0.153 | –
7 | B7 | – | – | – | – | Phage binding ELISA signal, Anti-PSMA Fab with PSMA antigen (PSMA Fab (006 PSMA Fab) [3]): 0.0677; Phage binding ELISA signal, Anti-PSMA Fab (PSMA Fab (006 PSMA Fab) [4]): 1.47
8 | B8 | – | – | – | – | Phage binding ELISA signal, Anti-PSMA Fab with PSMA antigen (PSMA Fab (006 PSMA Fab) [3]): 0.0631; Phage binding ELISA signal, Anti-PSMA Fab (PSMA Fab (006 PSMA Fab) [4]): 1.47
9 | B9 | – | – | 1.46 | 0.0649 | –
10 | B10 | 1.43 | 0.0705 | – | – | –
11 | B11 | 1.44 | 0.185 | – | – | –
12 | B12 | 1.43 | 0.07 | – | – | –
13 | B13 | – | – | 1.46 | 0.0597 | –
14 | B14 | – | – | 1.45 | 0.249 | –
15 | B15 | – | – | – | – | Phage binding ELISA signal, Anti-PSMA Fab (PSMA Fab (006 PSMA Fab) [7]): 1.42; Phage binding ELISA signal, Anti-PSMA Fab in presence of PSMA (PSMA Fab (006 PSMA Fab) [8]): 0.0735
16 | B16 | 1.43 | 0.0698 | – | – | –
17 | B17 | 1.43 | 0.0816 | – | – | –
18 | B18 | 1.43 | 0.0772 | – | – | –

Row | Binder | Phage binding ELISA signal, Anti-PSMA Fab (PSMA Fab (006 PSMA Fab) [1]) | Phage binding ELISA signal, Anti-PSMA Fab in presence of PSMA antigen (PSMA Fab (006 PSMA Fab) [2]) | Phage binding ELISA signal, Anti-PSMA Fab (Anti-PSMA Fab [5]) | Phage binding ELISA signal, Anti-PSMA Fab in presence of PSMA (Anti-PSMA Fab [6]) | other results
19 | B19 | – | – | – | – | Phage binding ELISA signal, Anti-PSMA Fab with PSMA antigen (PSMA Fab (006 PSMA Fab) [3]): 0.0929; Phage binding ELISA signal, Anti-PSMA Fab (PSMA Fab (006 PSMA Fab) [4]): 1.47
20 | B20 | 1.43 | 0.0731 | – | – | –
21 | B21 | 1.43 | 0.126 | – | – | –
22 | B22 | – | – | – | – | Phage binding ELISA signal, Anti-PSMA Fab with PSMA antigen (PSMA Fab (006 PSMA Fab) [3]): 0.102; Phage binding ELISA signal, Anti-PSMA Fab (PSMA Fab (006 PSMA Fab) [4]): 1.47
23 | B23 | – | – | – | – | Phage binding ELISA signal, Anti-PSMA Fab (PSMA Fab (006 PSMA Fab) [7]): 1.42; Phage binding ELISA signal, Anti-PSMA Fab in presence of PSMA (PSMA Fab (006 PSMA Fab) [8]): 0.0772
24 | B24 | – | – | 1.44 | 0.0858 | –
25 | B25 | – | – | 1.45 | 0.0612 | –
26 | B26 | – | – | 1.46 | 0.119 | –
27 | B27 | – | – | 1.46 | 0.0995 | –
28 | B28 | 1.44 | 0.108 | – | – | –
29 | B29 | – | – | 1.45 | 0.0765 | –
30 | B30 | – | – | 1.47 | 0.0954 | –
31 | B31 | 1.43 | 0.128 | – | – | –
32 | B32 | – | – | 1.45 | 0.0917 | –
33 | B33 | 1.42 | 0.0862 | – | – | –
34 | B34 | 1.42 | 0.0867 | – | – | –
35 | B35 | – | – | – | – | Phage binding ELISA signal, Anti-PSMA Fab (PSMA Fab (006 PSMA Fab) [7]): 1.42; Phage binding ELISA signal, Anti-PSMA Fab in presence of PSMA (PSMA Fab (006 PSMA Fab) [8]): 0.0662
36 | B36 | – | – | 1.47 | 0.0764 | –
